Measured values: the supplement of paper PMC9170038

Tested on: MS2 coat protein
Assay: apparent KD of MS2 coat protein; designed switch direction (-1 OFF switch, 1 ON switch): -1; higher = weaker reporter binding
In short: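 An oligonucleotide input, 200 uM small-molecule ligand, or no input was present during titration of SNAP-549-labelled MS2 coat protein, which was doubled from 0.7 or 1.5 nM to 3 µM. Designed RNA switches had been transcribed on Illumina chips by stalled E. coli RNA polymerase. Apparent KD per design is the median over clusters of curves fitted to normalised cluster fluorescence.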

[1] = input ligand: microRNA oligo, concentration not stated
[2] = Eterna round: R95, input ligand: FMN 200 uM
[3] = Eterna round: R95, input ligand: microRNA oligo, concentration not stated
[4] = Eterna round: R95, input ligand: none

Sequence	apparent KD of MS2 coat protein (input ligand: FMN 200 uM)	apparent KD of MS2 coat protein (input ligand: none)	apparent KD of MS2 coat protein [1]	apparent KD of MS2 coat protein [2]	apparent KD of MS2 coat protein [3]	apparent KD of MS2 coat protein [4]
UAUUUACAUGAGGAUCACCCAUGUCAGGAUAUGCGUCUAUCGUCGAAAGACGAUAGCCGCAGAAGGGACAAUAU [LRO-Excl01-21 mod derived from EliFisker 4.24] (Eterna round: R97, puzzle: Exclusion 1)	87.3 nM	58.1 nM	–	–	–	–
UAUUUACAUGAGGAUCACCCAUGUUAGGAUAUGUUUCUAUCGUCGAAAGAUGAUAUUUGCAGAAGGGACAAUAU [LRO-Excl01-28 mod derived from EliFisker 4.24] (Eterna round: R97, puzzle: Exclusion 1)	24 nM	24.3 nM	–	–	–	–
UAUUUAGCAAGCAGAUCCCACAUGAGGAUCACCCAUGUUCUCUGAACGUACAGAAUUACUGUACGAGCUCGUCUUAU [Winner reversed engineered 30] (Eterna round: R97, puzzle: Sensor, turn-off variant 1)	352 nM	352 nM	–	–	–	–
UCAAGCUUUAAGCGUGUGAACAUGAGGAUCACCCAUGUAUUUUAGGUAAUAAGUUCAAUUAUGUAUUCUCGUCUUAU [JR_SWV3TOV1_Sub095] (Eterna round: R96, puzzle: Sensor v3, turn-off variant 1)	61.5 nM	65.4 nM	45.4 nM	–	–	–
UCAAGCUUUAAGCGUGUGAACAUGAGGAUCACCCAUGUAUUUUAGGUAAUAAGUUCAAUUAUGUAUUCUCGUCUUAU [JR_SWV3TOV1_Sub095] (puzzle: Sensor v3, turn-off variant 1)	–	–	–	42.4 nM	37.4 nM	45.6 nM
UCAAGUAUGUAGGAUAUGAUGUGAUUGUACAUAUCAGAAGGACGUACAUGAGGAUCACCCAUGUAACUUGCAUG [Exclusion 6 - B - 12:b] (puzzle: Exclusion 6)	–	–	–	43.1 nM	144 nM	144 nM
UCACCGCAAGGAUAUACUUGCGGUGAUGUUCGAAAUCUUCUACUUGAGGAUCACCCAAGUAGAAGGUGCGGUGA [jl-ex2.4.66 ViennaUCT mod] (Eterna round: R97, puzzle: Exclusion 2)	14.3 nM	12.8 nM	–	–	–	–
UCACGGGACUAAGGAUAUACAUGAACUAUUAUUGUAGAAGGUAGAAUGUUAGCUUAUACACUAAACAUGAGGAUCACCCAUGUA [JR_ExcNG1_Sub095] (Eterna round: R96, puzzle: Exclusion NG 1)	–	–	26.9 nM	–	–	–
UCACGGGACUGAGGAUAUACAUCAACAAUGGUUGUAGAAGGCAGAAGGUUGAAUCAUAUACUAAACAUGAGGAUCACCCAUGUU [JR_ExcNG1_Sub031] (Eterna round: R96, puzzle: Exclusion NG 1)	16.4 nM	24.1 nM	16.6 nM	–	–	–
UCACGGGACUGAGGAUAUACAUGAACCAUUUUUGUAGAAGGCAGAAUGUUUGAUCAUACACUAAACAUGAGGAUCACCCAUGUU [JR_ExcNG1_Sub026] (Eterna round: R96, puzzle: Exclusion NG 1)	16 nM	20.1 nM	16.3 nM	–	–	–
UCACGGGAUUGAGGAUAUAUAUAAAUUUAUACAAUAGAAGGCAAAUUUUUAGUUUUUUCACUUUACAUGAGGAUCACCCAUGUU [JR_ExcBG1_Sub083] (Eterna round: R96, puzzle: Exclusion NG 1)	–	–	20.1 nM	–	–	–
UCACUACCGCAAGGAUAUGUUGUCUGACACGCUGCGUGACAUGAGGAUCACCCAUGUGCUAGUUCGCAGAAGGUGCGGAAUGUG [Eternabot solution 34] (Eterna round: R96, puzzle: Exclusion NG 2)	63.2 nM	17.1 nM	9.98 nM	–	–	–
UCAGGUCGGUAGGAUAUCGACGGGAAAAUCCCACGAGAAGGACUGACAUGAGGAUCACCCAUGUGAGCGUAACC [EX6 B.11] (Eterna round: R97, puzzle: Exclusion 6)	149 nM	202 nM	–	–	–	–
